The test has as its target T1, HSV-1 glycoprotein D (gD), non-fused, expressed from AdC68gD (HSV-1, UniProt Q05059 26-394).
T1 construct: Complete gD open reading frame (from pRE4) expressed in AdC68gD-infected cells; Tested as detergent cell extract (ELISA) or on and within infected cells; also called native gD; non-fused gD
The test is described as follows: confocal microscopy of AdC68gD-infected B78-H1/3E5 (human HVEM-EGFP) cells stained with MAb to gD.

This note sets out measurements from patent publication US20220331423A1 (WISTAR INSTITUTE OF ANATOMY AND BIOLOGY, published 2022).

T1 sequence (Q05059 26-394): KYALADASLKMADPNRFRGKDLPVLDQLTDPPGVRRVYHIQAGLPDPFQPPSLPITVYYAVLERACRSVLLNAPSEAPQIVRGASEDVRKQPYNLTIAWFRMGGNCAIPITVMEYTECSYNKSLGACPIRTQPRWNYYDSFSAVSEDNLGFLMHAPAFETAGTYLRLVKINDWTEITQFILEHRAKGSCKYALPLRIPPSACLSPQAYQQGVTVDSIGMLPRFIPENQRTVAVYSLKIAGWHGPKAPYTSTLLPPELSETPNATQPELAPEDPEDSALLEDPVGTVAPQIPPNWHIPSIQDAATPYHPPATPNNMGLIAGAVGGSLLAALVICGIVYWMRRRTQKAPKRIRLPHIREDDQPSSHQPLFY

B1: human HVEM fused to Enhanced Green Fluorescence Protein, expressed on B78H1/3E5 cells (receptor)
chain: LPSCKEDEYPVGSECCPKCSPGYRVKEACGELTGTVCEPCPPGTYIAHLNGLSKCLQCQMCDPAMGLRASRNCSRTENAVCGCSPGHFCIVQDGDHCAACRAYATSSPGQRVQKGGTESQDTLCQNCPPGTFSPNGTLEECQHQTKCSWLVTKAGAGTSSSHWVWWFLSGSLVIVIVCSTVGLIICVKRRKPRGDVVKVIVSVQRKRQEAEGEATVIEALQAPPDVTTVAVEETIPSFTGRSPNH
notes: whole, on cells; Mouse melanoma cells B78H1/3E5; also called HVEM-EGFP; HVEM on B78-H1/3E5 cells; not shown: Enhanced Green Fluorescence Protein (EGFP)
Consider B1, for which the binding result is “binds”.
